Data reported in a protein production outcome set (Wang et al. 2014).

Assay: label from the status in PepcDB records

## MSHLLEKAAARGDLAALERLLDAGADLEWQHKGTGRTALLAATIAGHQPAVALLLARGANVQQPCKALGYSPLAWAASHGDTALAELLIAHGAALEQASPELQRTALMNAAQAGHEAMVALLLKAGANPSPVDFQQRNAWSLAEENGHAQVMQQLEQAGTGAPPAPAPAPSLPWPPLVPGTDSSADPVTQVRAYTLALYAWEQRGNALGHEALDAAFWAEPQQLLERFCTLRPRAYPRASYGYPTTHAEADELLGCQLLKPAQAEVLVRDPASRALCYEHRFVVKRVAGQWRIDSVKRRLAGTQKWANAIL
  protein production: failed

## MENLALTTLLLPFIGALVVSFSPQRRAAEWGVLFAALTTLCMLSLISAFYQADKVAVTLTLVNVGDVALFGLVIDRVSTLILFVVVFLGLLVTIYSTGYLTDKNREHPHNGTNRYYAFLLVFIGAMAGLVLSSTLLGQLLFFEITGGCSWALISYYQSDKAQRSALKALLITHIGSLGLYLAAATLFLQTGTFALSAMSELHGDARYLVYGGILFAAWGKSAQLPMQAWLPDAMEAPTPISAYLHAASMVKVGVYIFARAIIDGGNIPHVIGGVGMVMALVTILYGFLMYLPQQDMKRLLAWSTITQLGWMFFGLSLSIFGSRLALEGSIAYIVNHAFAKSLFFLVAGALSYSCGTRLLPRLRGVLHTLPLPGVGFCVAALAITGVPPFNGFFSKFPLFAAGFALSVEYWILLPAMILLMIESVASFAWFIRWFGRVVPGKPSEAVADAAPLPGSMRLVLIVLIVMSLISSVIAATWLQ
  protein production: failed

## MEVDTMETLIRLFVSILIICVLALMIKKSRCLDNEGVIGSSIMGFILLYFCGFKYLILLLSFFILGVLVSRVGLEKKKAKKMDETCRSLKNVLANGLIPILFAILAIFGFNWALIGYISSIAAATSDTFSSELGILSNEKPRLITTFEVVEKGTDGAITIFGTLAGVLGAFLIGLFGYLLFGDIKIVLCGTAGGIAGNLADSLVGALFERKGILNNEHVNLIATIVGGIIGVLIYCTL
  protein production: failed

## MQLIGDTPITYRRYSMSSSQNALVLIARILLSFIFIYSGFGKLTDPAGTAGMIAGAGMPAATALAYLAGLFELVAGLAILAGFQTKIAAWALAVFCVFTGLVFHSGTVAVPGWPEPALGWINTLNGIMMMKNITLAGAYILLATFGAGAYSVDAKRGFVAARA
  protein production: failed

## MSDRKTMWDERYDTTDFVYGREPNAFLAEVVQQIPPGDVLCLAEGEGRNAVFLAKQGHRVLAVDSSAVGLVKAARLAEESGVRIETETADLAEFAIEPVCWDAIVSIFCHVPPQVRRALHRKVVEGLRPGGLFILEAYTPAQLKLRTGGPPTEEVMMTLAGLREELAGLEFLQAREIEREVVEGRFHTGRGAVVQVVARKP
  protein production: failed

## MKDSAQNFSTEKTGLKPVIRKIYDCLFDSYGPQGWWPLTELREAEGTNPTKTGSVQGYHPADYTYPQTRNQRFEIICGALLTQNTSWIQVEKALLNLKDLLSLKQINSFSPETIISLDTEILKEAIRPAGYYNQKAMRLKNLACWFLELENRIPARKELLSLKGVGPETADSILLYAFKQPSFVVDAYTKRIVTNLGLADEKAGYNEIKALFEENLPEDTTVYQEYHALLVEHAKRYYQKKSIRTNDIILKHVF
  protein production: failed

## MSLSGALKENSGKPSEVEYTHFKDLQALEMERGRLYETIVVTWDDSMVGNAAPIGVLCTGDDTVTLYLYQGTRTVENVLNNGRFTVNVTLDPLIFTDSTLGDLEEDMFSHYRDFLHLRGADAFFTAEVVSVKKLVKRDRFGESELHVVKARAGDVMRAESFRMALNRGIYAVIESLIAYTRAEFSDPLVLRERIAEMNRVARKVGGPREKEAMRRIIQALESKISEGHHHHHH
  protein production: not failed

## DDVTLLTVPGWGNSGDTHWHGYWEKTYPLARRAEQRDWLYPTRDEWVAGLAAAVAEIPGKLVIAAHSLGCHTTVAWLLQATLLEQRKVKGALLVAPPAIPLTDERARASGELPEGAPLPTFAGFETLPERKLPVPALLVASRDDPFCEFEEARRMAELWGAEFVDGGMAGHMGSHAGLGSWPAGQRLLQRLI
  protein production: failed

## MHSEHGRQNVKVELKGVHRVRRKLASGETAVYHYAWRGGPRIDAAPGSAEFVAAYNAAHAARDRPVHHDGTLQALITAYQKTPAFTDLAEATRKGYIRHIRQIEADFGDMPVQALADPRVRGEFLDWRDRLAQKSKRSADYAFSVLARILSWAHDRRKIPVNPCEKPGRLYTGSRADSIWTEAQIAAFLAVAPRPVRLPFLLAIWTGQRQADILQLTWTAYDGQAIRLRQSKTGRHMLIPVAQPLREAMEEAKARRRTLTICETSRGQPWTSDGFKTSFGKAQASAGIEGVTFHDLRGTAVTFLALAGCSVPEIAALTGHSLKDAEGILSKHYLGRDRRLGESAVAKLEKHGVGTPTVKRAVKRRGPEGGDSV
  protein production: failed

## MSIFNKDALSSFFGLSGEEDDYYDNYEEYEERKAVNEPPRRAARPKPQRPVQQQESYSQPAYTQQSEPVVEKPSARYRSAEAHQERDTQQAAYTEKKVVSMRSSNQSATTNTRRAQESTANAKTHKITIIEPRVYSEAMSIAKHLFAEEAVLVNFTLVEEDQARRIVDFLTGTVYALDGDIQRVGNEIFLCTPANMEIDSATAQSLANKQFFDFLEHHHHHH
  protein production: failed

## MAARAWVVAVVGFFVMWLMFQVVGWVIGVIWGVWQQLDQATAGTMIEPPQDWKNMLNSLYSNMLGIWNYLPVVVLLSAVVYIIIESLRRRPEEYYV
  protein production: failed

## MIMINKTKRLMVSRQVKIPRKTYFWGPTPNPGMHPKDQSVTLLSIIRDYLKLSDKEREAARILANGLVKVDGKTVREKKFAVGFMDVIEINGESYRVVYNDQGALVLMKETKERASMKLLKVRSKVIAPGNRIQLGTHDGRTFITDDKSKKVGDVWAVSVPDMKISEIIKMQPGNKAYITAGSHVNQTGTISKIEAKEGSSANLVHFQEGFSTIKDHVFMIGSSKFSFVLSPEEVIPLEHHHHHH
  protein production: not failed

## MSLNRHFTVSVFIVCKDKVLLHLHKKAKKMLPLGGHIEVNELPEEACIREAKEEAGLNVTLYNPIDINLKKSCDLSGEKLLINPIHTILGDVSPNHSHIDFVYYATTTSFETSPEIGESKILKWYSKEDLKNAHNIQENILVMATEALDLLEGHHHHHH
  protein production: not failed

## MTQELQTLEVEEEMMMRKFYELMSRQRLNKKMIMLVLIEIDVGSFEENGEDSKCVTWTERHKPLKGNNAAGVLPLQRLVRDGLLAYGPEVF
  protein production: failed

## VTGSIRSKLSAIDVRQLGTVDYRTAWQLQRELADARVAGGADTLLLLEHPAVYTAGRRTETHERPIDGTPVVDTDRGGKITWHGPGQLVGYPIIGLAEPLDVVNYVRRLEESLIQVCADLGLHAGRVDGRSGVWLPGRPARKVAAIGVRVSRATTLHGFALNCDCDLAAFTAIVPCGISDAAVTSLSAELGRTVTVDEVRATVAAAVCAALDGVLPVGDRVPSHAVPSPL
  protein production: not failed

## MPDASAENPWLPLRQLTPARIALGRTGTSLPTRPQLDFQYAHAQARDAVHLPFDHAAISDGLRQRGRDSLLLHSAAADRHVYLQRPDLGRRLDEASVQRLREHAAGYDGQIDLAIVVADGLSALAVQRHTLPFLERLEEQALAEGWSLSPVVLVEQGRVAVADEIGELLRAKMSVILIGERPGLSSPDSLGLYFTWAPRVGLTDAYRNCISNVRLEGLSYGMAAHRLLYLMREACRRQLSGVNLKDEAEVQALDGEAPRTGNFLLAR
  protein production: failed

## NIILASRSLDKCYAIKESMLKKGLGEIGVEQVDADDTQALVALIQKYKPKVVINVALPYQDLTIMQACLETKTHYIDTANYEHPDLAKFEYKEQWAFDRAYKEVGILGVLGAGFDPGVTNAYVAHAQKHHFDTIHTLDILDCNAGDHKRPFATNFNPEINL
  protein production: failed

## MQPISILFLGIDDNDGRRKKGQDAEHSRSDAMILTTFNQSKHQIRMLSIPRDTISYIPKVGYYDKITHAHAYGGPIAAMDSVEATMNVPVDYYVRVNMKAFVEAVNELGGIYYDVPYDLNEPNTDDTGKIKIKKGYQKLNGDEALAVARTRHHDSDLKRGQRQMELIKILFQKAQEVDSIDKLDNVIQIVGKNAKHNLTNSEIKALAKMYLTNDVEIKTAQLKGKDDMLNGIYYYHPSVESIQKYANLLRKDLELSPINDKNDFLDQRVINHYGSLIPLTPLDSSLLRLEHHHHHH
  protein production: not failed
